# Earlier results, collected in paper PMC5371862.
# How the values were obtained:
# [1] = biological target: muscarinic acetylcholine receptor M4 (Homo sapiens) (UniProt P08173)
# [2] = biological target: muscarinic acetylcholine receptor M1 (Homo sapiens) (UniProt P11229)
# P-type calcium channel = P-type calcium channel (UniProt O00555)
# [3] = biological target: edema factor (Bacillus anthracis) (UniProt P40136)
# [4] = biological target: lethal factor (Bacillus anthracis) (UniProt P15917)
# Chain of protective antigen PA63 oligomer PA63 (P13423 197-764): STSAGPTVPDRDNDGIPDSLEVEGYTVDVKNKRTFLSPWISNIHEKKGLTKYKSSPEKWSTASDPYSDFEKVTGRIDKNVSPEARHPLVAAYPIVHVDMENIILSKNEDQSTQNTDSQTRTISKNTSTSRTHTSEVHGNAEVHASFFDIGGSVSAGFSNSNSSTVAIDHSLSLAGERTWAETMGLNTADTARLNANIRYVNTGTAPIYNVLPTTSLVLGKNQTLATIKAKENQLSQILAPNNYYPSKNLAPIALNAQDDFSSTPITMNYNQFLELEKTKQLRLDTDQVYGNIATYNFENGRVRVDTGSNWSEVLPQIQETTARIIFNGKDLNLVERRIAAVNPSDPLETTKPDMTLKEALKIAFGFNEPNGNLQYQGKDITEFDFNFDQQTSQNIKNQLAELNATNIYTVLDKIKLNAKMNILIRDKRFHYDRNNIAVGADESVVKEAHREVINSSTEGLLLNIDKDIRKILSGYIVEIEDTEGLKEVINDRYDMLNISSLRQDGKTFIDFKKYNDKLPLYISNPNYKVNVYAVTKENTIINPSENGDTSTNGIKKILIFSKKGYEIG
# Chain of muscarinic acetylcholine receptor M1 (Homo sapiens) (P11229 whole entry): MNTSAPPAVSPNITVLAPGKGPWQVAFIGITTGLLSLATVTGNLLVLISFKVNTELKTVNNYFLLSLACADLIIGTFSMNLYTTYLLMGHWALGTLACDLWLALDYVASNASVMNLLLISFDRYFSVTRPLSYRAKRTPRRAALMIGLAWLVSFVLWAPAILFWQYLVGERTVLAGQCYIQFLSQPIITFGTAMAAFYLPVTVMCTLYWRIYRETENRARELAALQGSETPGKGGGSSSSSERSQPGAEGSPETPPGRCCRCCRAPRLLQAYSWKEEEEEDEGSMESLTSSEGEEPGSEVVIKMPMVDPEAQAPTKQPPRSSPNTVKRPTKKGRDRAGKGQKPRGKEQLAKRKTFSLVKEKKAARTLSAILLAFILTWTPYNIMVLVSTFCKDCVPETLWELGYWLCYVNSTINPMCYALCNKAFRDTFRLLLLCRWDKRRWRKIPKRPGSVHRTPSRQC
# Chain of edema factor (Bacillus anthracis) (P40136 34-800): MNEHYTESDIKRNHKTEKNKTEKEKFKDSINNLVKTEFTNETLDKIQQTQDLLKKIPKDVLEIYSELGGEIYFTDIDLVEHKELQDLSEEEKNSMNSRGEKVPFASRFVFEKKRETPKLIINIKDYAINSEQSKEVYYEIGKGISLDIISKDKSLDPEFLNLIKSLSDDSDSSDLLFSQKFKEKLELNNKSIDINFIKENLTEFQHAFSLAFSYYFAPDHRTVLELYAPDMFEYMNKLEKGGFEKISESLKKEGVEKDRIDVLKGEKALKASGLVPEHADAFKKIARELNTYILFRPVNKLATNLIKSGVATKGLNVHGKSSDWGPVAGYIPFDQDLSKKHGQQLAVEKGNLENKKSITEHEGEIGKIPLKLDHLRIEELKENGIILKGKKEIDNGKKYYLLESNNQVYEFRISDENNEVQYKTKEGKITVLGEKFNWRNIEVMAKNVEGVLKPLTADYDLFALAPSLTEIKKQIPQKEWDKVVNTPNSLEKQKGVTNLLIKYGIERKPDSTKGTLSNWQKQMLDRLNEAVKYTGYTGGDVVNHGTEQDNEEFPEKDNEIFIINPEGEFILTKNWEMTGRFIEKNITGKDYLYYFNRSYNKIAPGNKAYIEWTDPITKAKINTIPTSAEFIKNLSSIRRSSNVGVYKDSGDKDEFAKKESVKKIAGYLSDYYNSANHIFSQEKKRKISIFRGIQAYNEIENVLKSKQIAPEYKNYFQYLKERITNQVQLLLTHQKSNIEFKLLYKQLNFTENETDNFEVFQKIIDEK
# Chain of muscarinic acetylcholine receptor M4 (Homo sapiens) (P08173 whole entry): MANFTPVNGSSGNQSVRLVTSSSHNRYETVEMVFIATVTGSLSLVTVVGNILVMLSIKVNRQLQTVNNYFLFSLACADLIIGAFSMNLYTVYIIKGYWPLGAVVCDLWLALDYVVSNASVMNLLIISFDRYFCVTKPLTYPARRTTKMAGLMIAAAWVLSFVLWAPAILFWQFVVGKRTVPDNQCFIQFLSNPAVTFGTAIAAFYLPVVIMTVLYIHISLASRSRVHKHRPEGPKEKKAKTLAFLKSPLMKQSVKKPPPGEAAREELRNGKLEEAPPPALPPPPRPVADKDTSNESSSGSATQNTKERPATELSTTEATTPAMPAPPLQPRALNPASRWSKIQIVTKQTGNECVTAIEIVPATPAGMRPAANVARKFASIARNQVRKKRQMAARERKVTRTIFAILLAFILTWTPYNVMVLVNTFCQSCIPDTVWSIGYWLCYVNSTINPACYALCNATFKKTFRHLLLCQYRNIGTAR
# Chain of P-type calcium channel (O00555 whole entry): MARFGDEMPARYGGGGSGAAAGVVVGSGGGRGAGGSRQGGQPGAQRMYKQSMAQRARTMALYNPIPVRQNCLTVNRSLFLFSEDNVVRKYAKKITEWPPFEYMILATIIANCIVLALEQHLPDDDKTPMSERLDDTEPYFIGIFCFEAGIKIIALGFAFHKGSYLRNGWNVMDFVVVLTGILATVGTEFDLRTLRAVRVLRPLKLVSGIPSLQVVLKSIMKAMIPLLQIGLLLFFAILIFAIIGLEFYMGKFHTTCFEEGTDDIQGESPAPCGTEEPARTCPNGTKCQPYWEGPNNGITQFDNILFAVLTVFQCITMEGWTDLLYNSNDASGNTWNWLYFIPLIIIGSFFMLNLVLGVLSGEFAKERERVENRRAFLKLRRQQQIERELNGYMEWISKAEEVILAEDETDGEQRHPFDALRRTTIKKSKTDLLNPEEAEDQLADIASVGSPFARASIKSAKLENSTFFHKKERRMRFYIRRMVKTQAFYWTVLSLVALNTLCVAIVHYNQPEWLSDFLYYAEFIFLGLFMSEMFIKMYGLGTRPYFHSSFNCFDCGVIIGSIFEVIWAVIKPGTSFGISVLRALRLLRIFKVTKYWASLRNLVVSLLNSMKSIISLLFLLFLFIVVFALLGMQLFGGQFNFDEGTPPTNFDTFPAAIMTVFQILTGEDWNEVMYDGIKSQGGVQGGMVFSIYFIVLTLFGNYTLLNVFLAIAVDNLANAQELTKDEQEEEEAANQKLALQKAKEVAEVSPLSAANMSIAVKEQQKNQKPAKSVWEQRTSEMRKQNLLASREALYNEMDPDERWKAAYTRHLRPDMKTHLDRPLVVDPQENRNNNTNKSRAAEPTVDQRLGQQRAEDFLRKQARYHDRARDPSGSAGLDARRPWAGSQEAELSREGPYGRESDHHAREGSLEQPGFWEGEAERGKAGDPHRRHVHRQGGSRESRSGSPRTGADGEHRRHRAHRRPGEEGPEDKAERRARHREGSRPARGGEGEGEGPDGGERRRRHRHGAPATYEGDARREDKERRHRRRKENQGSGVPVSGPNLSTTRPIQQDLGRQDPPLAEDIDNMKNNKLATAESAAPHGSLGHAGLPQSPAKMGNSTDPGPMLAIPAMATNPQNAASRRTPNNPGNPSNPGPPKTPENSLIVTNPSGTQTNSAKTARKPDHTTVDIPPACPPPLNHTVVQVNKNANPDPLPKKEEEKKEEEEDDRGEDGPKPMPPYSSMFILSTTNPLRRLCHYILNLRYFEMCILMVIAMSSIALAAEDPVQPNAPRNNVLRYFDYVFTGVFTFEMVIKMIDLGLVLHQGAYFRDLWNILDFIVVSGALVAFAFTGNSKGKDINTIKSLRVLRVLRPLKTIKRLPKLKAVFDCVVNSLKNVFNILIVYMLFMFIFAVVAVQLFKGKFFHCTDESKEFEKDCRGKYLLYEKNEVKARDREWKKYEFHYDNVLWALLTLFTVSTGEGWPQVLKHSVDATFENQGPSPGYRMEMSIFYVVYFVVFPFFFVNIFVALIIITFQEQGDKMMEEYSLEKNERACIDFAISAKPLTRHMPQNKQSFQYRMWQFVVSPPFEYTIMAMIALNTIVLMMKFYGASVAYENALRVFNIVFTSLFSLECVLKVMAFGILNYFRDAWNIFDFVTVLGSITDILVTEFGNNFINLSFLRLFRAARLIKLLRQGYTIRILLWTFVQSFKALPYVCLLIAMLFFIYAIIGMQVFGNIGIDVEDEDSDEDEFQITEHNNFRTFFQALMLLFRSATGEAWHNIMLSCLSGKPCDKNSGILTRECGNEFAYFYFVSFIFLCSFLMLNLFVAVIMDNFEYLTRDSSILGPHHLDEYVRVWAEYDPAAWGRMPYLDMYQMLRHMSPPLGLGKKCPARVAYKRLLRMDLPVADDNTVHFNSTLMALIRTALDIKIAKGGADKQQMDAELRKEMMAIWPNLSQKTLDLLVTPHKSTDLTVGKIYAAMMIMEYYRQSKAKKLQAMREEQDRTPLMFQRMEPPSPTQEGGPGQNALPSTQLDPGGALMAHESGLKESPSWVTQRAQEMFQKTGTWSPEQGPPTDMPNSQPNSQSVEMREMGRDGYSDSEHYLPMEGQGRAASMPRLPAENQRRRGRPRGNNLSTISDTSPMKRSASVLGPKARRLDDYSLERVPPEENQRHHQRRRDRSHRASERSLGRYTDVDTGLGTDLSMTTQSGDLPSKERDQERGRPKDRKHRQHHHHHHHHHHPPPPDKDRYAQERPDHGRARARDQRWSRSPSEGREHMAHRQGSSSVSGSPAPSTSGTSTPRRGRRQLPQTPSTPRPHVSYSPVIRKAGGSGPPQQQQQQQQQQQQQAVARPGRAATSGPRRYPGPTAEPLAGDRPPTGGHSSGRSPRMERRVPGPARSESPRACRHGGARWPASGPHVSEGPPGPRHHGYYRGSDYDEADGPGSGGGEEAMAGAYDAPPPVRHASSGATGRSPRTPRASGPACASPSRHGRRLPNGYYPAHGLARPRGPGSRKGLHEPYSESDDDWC
# Chain of muscarinic toxin MT3 (P81031 whole entry): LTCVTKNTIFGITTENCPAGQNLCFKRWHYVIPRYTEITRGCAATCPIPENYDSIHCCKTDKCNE
# Chain of muscarinic toxin MT7 (Q8QGR0 22-86): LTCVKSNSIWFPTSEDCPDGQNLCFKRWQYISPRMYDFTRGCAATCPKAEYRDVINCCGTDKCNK
# Chain of omega-agatoxin Aga-IVA (P30288 whole entry): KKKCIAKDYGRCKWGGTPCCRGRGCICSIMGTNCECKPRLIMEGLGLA
substance,measurement,setting,value
muscarinic toxin MT3 (from UniProt P81031),Ki,[1],2 nM
muscarinic toxin MT7 (from UniProt Q8QGR0),Ki,[2],0.014 nM
omega-agatoxin Aga-IVA (from UniProt P30288),Kd,P-type calcium channel,3 nM
protective antigen PA63 oligomer PA63 (from UniProt P13423),Kd,[3],1 nM
same,Kd,[4],1 nM
